Target: T1, HLA-A*0201 (Homo sapiens, UniProt P04439, D140Y/D185E/D98H/E176V/E277Q/G131W/G231S/I119V/I121R/I166T/I218V/L300P/L318F/N151K/N90K/P208A/P217A/Q86G/Q94H/R138H/R169H/T345S)
T1 construct: rescue cell-surface expression of CMH-I molecule HLA-A2 in the TAP peptide transporter-deficient cell line T2; endogenous in cells; host or cells: T2 cells (TAP-deficient)
Experiment: T2 peptide binding assay
Format: cell-based
Conditions: for dose-response of MHC class I (HLA-A2) expression at the surface of T2 cells: 30, 100, 200 μg/ml; for A2 binding / Peak fluorescence, % of the levels obtained with NS3 1406-1415 / initial screening of the overlapping peptide panel for HLA-A*0201 expression at the cell surface: T2 cells; for A2 binding: dose-dependent increase of HLA-A2 surface expression; for Peak fluorescence, % of the levels obtained with NS3 1406-1415: MHC class I staining with W6/32; for initial screening of the overlapping peptide panel for HLA-A*0201 expression at the cell surface: 200 μg/ml
Experimental: 37 overlapping peptides (15 amino acid residues with […]) derived from F protein and 5 additional 15-mer peptides corresponding to alternative N-terminal frameshift products of the core protein sequence were synthesized using Fmoc chemistry (SynPep, Dublin, Calif.) based on the sequence of HCV-1a F protein (GenBank accession n° M62321), and were resolubilized in 25% w/v dimethyl sulfoxyde (DMSO) in 1×HBSS. Peptides were diluted to 30, 100, and 200 μg/ml final concentration in DMEM supplemented with 3% w/v FBS, and were incubated with 100,000 serum-depleted (3% FBS for 24 h) T2 cells for 16 h at 37° C. in 5% CO2. T2 cells were then stained (30 min at room temperature) for MHC class I molecules using fluorescein isothiocyanate (FITC)-conjugated W6/32 monoclonal antibody (Sigma, Saint Louis, Mo.) and were analyzed on a FACSCalibur™ flow cytometer (Becton-Dickinson Immunocytometry Systems, La Jolla, Calif.) with live gating based on forward and side scatter.
Interaction of antigenic peptides with class I major histocompatibility complex (MHC) molecules is a prerequisite for their recognition by host cytotoxic T lymphocytes (CTL). The T2 binding assay was therefore performed, in which exogenously-supplied peptides are assessed for their ability to rescue cell-surface expression of CMH-I molecule HLA-A2 in the TAP peptide transporter-deficient cell line T2 [25].
Forty-two overlapping 15-mer peptides corresponding to HCV-1a F protein sequence were tested for interaction with HLA-A*0201 molecules using the T2 peptide binding assay. Specifically, thirty-seven overlapping peptides (15 amino acid residues with 11 residues overlaps) derived from F protein and 5 additional 15-mer peptides corresponding to alternative N-terminal frameshift products of the core protein sequence were synthesized using Fmoc chemistry based on the sequence of HCV-1a ARFP (GenBank accession n° M62321), and peptide binding was assessed as described in Example 1. […] Mean fluorescence intensity following class I MHC staining by the W6/32 monoclonal antibody was used as the readout. The threshold level was set using no peptide controls (hatched lines in FIGS. 4 and 5).

Sequence	dose-response of MHC class I (HLA-A2) expression at the surface of T2 cells	A2 binding	Peak fluorescence, % of the levels obtained with NS3 1406-1415 [%]	initial screening of the overlapping peptide panel for HLA-A*0201 expression at the cell surface
ALGLAGAPQT (Hepatitis C virus) [F103-112]	unable to rescue HLA-A2 expression	–	–	–
AGAPQTPGV (Hepatitis C virus) [F107-115]	dose-dependent capacity to rescue A2 expression	+	–	–
CCRAGALDWVCARRE (Hepatitis C virus) [F37-51]	dose-dependent increase	+	79.2	high binders
VRSLVEFTCCRAGAL (Hepatitis C virus) [F29-43, 15-mer of HCV-1a F protein]	dose-dependent increase	+	87.6	high binders
SLVEFTCCRA (Hepatitis C virus) [F31-40]	dose-dependent increase	+	–	–
KLVALGINAV [NS3 1406, reference compound]	–	+	–	–
PVALGLAGAPQTPGV (Hepatitis C virus) [F101-115]	dose-dependent increase	+	83.2	high binders
